Laboratory results taken from article PMC4788097 (Structure (London, England : 1993), 2013).

T1: Stx6 (3-110) (human, UniProt O43752 3-110)
T1 sequence (looked up): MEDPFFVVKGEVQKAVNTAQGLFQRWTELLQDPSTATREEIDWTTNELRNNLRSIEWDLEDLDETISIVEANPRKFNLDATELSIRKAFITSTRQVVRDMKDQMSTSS

T2: Stx10 (1-110) (human, UniProt O60499 1-110)
T2 sequence (looked up): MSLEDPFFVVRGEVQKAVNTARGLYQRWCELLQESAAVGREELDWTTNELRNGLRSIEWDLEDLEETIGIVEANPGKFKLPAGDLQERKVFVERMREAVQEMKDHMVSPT

B1: Ang2 peptide 33AHGMLKLYYGLSEGEAA49 (peptide)
peptide: AHGMLKLYYGLSEGEAA
B2: Ang2 (1-69) (domain or fragment, human, UniProt Q9UID3 1-69, looked up)
chain: MAAAAAAGPSPGSGPGDSPEGPEGEAPERRRKAHGMLKLYYGLSEGEAAGRPAGPDPLDPTDLNGAHFD

Key:
Stx6 (3-110) [1] = biological target: T1, Stx6 (3-110); assay: crystal structure
Stx10 (1-110) = biological target: T2, Stx10 (1-110); assay: ITC
Stx6 (3-110) [2] = biological target: T1, Stx6 (3-110); assay: ITC

Binder	binding result (Stx6 (3-110) [1])	Kd (Stx10 (1-110))	stoichiometry N (Stx10 (1-110))	Kd (Stx6 (3-110) [2])	stoichiometry N (Stx6 (3-110) [2])
B1	binds	–	–	–	–
B2	–	6.5 ± 0.8 µM	0.7	5.6 ± 0.7 µM	0.8
